From US6063627

Tested on: Cre recombinase (Bacteriophage P1)
Experiment: cell_activity
Settings: cotransfection with Cre-expressing plasmid

Lox sites in pEOBglugl
activity (log induction of beta-glucuronidase): > 3
